Patent US20210171598A1, “PEPTIDE HORMONE WITH ONE OR MORE O-GLYCANS” (priority 2017, published 2021)
Where two headings read alike, the source gives them in different places. No end group written: not given here. *: point of attachment. diST = diST O-glycan, CC(=O)N[C@@H]1[C@@H](O[C@@H]2O[C@H](CO)[C@H](O)[C@H](O[C@]3(C(=O)O)C[C@H](O)[C@@H](NC(C)=O)[C@H]([C@H](O)[C@H](O)CO)O3)[C@H]2O)[C@@H](O)[C@@H](CO[C@]2(C(=O)O)C[C@H](O)[C@@H](NC(C)=O)[C@H]([C@H](O)[C@H](O)CO)O2)O[C@@H]1*; code T = T O-glycan (Galβ1-3GalNAc), CC(=O)N[C@@H]1[C@@H](O[C@@H]2O[C@H](CO)[C@H](O)[C@H](O)[C@H]2O)[C@@H](O)[C@@H](CO)O[C@@H]1*; ST = sialylated T O-glycan

T1: NPR-A receptor (UniProt P16066 33-1061, limits assumed)
T1 sequence (looked up): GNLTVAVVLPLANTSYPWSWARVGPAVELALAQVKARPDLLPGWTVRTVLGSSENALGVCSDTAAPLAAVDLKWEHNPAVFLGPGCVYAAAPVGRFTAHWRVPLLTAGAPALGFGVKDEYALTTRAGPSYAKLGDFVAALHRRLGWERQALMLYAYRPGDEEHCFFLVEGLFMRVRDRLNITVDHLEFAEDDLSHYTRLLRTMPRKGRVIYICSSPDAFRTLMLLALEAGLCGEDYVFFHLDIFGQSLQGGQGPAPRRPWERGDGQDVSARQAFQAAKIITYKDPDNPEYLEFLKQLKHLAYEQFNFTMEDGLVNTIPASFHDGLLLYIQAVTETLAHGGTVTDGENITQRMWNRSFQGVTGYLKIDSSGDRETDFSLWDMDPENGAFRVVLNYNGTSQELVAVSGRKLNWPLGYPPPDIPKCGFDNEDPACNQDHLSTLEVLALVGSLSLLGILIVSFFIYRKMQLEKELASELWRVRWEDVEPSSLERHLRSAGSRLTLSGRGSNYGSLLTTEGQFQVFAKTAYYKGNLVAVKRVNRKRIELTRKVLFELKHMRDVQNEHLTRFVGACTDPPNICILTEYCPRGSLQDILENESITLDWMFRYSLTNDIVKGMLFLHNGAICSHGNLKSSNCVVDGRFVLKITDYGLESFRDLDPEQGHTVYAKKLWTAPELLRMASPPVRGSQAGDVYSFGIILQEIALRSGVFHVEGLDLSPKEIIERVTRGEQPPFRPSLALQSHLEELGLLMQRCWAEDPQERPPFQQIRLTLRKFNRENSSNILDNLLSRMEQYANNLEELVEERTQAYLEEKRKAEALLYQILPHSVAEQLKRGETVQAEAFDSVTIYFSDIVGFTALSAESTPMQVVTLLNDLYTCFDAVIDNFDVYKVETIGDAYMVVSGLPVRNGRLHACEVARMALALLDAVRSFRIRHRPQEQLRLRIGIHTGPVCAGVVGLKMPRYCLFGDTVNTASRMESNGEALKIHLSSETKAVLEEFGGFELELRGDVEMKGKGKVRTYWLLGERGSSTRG


Assays:
neprilysin (NEP) = neprilysin (NEP) (Homo sapiens, UniProt P08473); assay: In vitro degradation by neprilysin, MALDI-TOF time course
Procedure: (§1) Many peptide hormones are destined for endocrine circulation where they are rapidly degraded with half-lives reaching only a few minutes^6-8.
(§2) For enzymatic degradation assays using either NEP or DPP-IV (R&D systems, UK), an enzyme titration was carried out to ensure full degradation within one hour of reaction time.
(§3) MALDI-TOF-MS was performed on a Bruker Autoflex instrument (Bruker Daltonik GmbH, Bremen, Germany) by mixing the quenched aliquots with a saturated solution of α-Cyano-4-hydroxycinnamic acid in ACN/H2O/TFA (70:30:0.1) at a ratio 1:1 on a target steel plate and mass-spectra were acquired in linear mode.
Reactions were performed in 50 mM Tris, 0.05% Brij-35, pH 9 (Neprilysin), or 50 mM Tris, 20 mM NaCl, pH 7.5 (IDE) and incubated at 37° C.

[1] = target: dipeptidyl peptidase IV (DPP-IV) (Homo sapiens, UniProt P27487); assay: In vitro degradation by DPP-IV, MALDI-TOF time course
Procedure: as §1, §2, §3

male Sprague Dawley rats = assay: Acute cardiovascular and renal actions of i.v. infusion in anesthetized rats; format: in vivo; conditions: rat
Description: The protocol is outlined in FIG. 9A.
Rats were then subjected to vessel and bladder cannulation for peptide infusion, BP measurement, blood sampling and urine collection. A polyethylene (PE)-5G tube catheter was placed into the jugular vein for inulin, peptide intravenous infusion. The carotid artery was cannulated with a PE-50 tube catheter for BP measurement (Sonometrics, London, Ontario, Canada) and blood sampling. The bladder was accessed and cannulated with a PE-50 tube catheter for passive urine collection. After completion of the above procedural set up, a 45 min equilibration period was performed that included continuous IV inulin and saline infusion. After the 45 min equilibration period, baseline (Time==Q min) parameters were recorded and one blood sampling (0.7 ml) was performed. The inulin and saline infusion was replaced by a continuous intravenously (i.v.) infusion of equimolar ANP-Ser19/ST or ANP-Ser25/ST for 60 min. The infusion rate was weight adjusted and equals weight*0.7/6000 ml/min. After 60 min infusion (Time=60 min), another blood sampling (0.7 ml) was conducted. […] Urine was collected at the end of the infusion (Time=60 min) and the study (Time=90 min). Urinary sodium was measured with pHOx Ultra (Nova Biomedical, Waltham, Mass.). Urine flow (UV) and urinary sodium excretion (UNaV) were calculated as urine volume or sodium clearance per min, Inulin concentrations were measured with enthrone method and inulin clearance was used for GFR quantification. Urinary cGMP and ANP excretion rate was calculated based on raw values obtained in the urine and UV.

NPR-A receptor = target: T1, NPR-A receptor; assay: cell-based or functional assay
[2] = 600 pmol/kg/min i.v., 60 minutes infusion

Chain of dipeptidyl peptidase IV (DPP-IV) (P27487 whole entry): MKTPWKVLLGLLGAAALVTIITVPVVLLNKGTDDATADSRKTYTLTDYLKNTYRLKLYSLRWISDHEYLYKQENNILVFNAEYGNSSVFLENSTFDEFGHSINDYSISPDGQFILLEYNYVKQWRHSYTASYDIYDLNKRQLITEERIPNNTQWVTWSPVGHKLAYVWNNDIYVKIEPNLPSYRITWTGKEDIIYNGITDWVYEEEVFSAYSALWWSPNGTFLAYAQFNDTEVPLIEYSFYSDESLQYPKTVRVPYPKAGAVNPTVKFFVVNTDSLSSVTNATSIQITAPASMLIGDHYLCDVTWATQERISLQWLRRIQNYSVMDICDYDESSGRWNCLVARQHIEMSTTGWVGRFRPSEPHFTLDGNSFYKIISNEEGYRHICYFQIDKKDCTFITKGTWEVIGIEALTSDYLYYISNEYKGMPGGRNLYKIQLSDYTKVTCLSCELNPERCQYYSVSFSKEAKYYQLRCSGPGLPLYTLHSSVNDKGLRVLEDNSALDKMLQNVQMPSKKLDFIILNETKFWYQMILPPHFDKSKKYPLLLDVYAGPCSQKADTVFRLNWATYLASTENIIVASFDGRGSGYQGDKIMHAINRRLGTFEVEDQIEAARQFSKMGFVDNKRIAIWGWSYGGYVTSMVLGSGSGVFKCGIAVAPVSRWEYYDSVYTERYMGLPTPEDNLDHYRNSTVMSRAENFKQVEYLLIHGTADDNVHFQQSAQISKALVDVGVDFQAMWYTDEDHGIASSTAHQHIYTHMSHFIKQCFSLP
Chain of neprilysin (NEP) (P08473 whole entry): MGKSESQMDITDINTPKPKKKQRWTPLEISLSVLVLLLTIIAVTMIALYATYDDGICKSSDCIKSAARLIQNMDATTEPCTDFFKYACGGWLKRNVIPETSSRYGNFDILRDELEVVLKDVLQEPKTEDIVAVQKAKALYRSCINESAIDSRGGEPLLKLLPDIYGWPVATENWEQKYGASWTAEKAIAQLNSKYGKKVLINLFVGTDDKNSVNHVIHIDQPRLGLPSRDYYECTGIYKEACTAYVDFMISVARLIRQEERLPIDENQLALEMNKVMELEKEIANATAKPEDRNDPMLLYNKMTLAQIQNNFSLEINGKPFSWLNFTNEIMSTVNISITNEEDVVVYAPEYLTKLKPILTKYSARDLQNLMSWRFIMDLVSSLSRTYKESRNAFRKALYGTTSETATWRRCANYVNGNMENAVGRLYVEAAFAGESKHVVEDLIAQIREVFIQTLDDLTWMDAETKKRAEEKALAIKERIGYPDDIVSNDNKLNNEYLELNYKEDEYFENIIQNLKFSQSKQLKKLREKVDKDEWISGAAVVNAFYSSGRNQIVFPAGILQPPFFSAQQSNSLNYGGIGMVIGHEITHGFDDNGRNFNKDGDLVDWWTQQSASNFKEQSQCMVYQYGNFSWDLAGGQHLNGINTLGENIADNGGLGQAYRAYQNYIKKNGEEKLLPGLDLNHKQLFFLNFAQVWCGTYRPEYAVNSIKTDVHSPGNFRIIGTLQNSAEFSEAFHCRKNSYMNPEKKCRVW

Molecule	increase in efficacy, cGMP generated (NPR-A receptor)	potency, cGMP generated (HTRF) (NPR-A receptor)	reduction in efficacy, cGMP generated (NPR-A receptor)	other results
CC[C@H](C)[C@H](NC(=O)[C@H](Cc1ccccc1)NC(=O)[C@H](CCC(=O)O)NC(=O)[C@H](CCCCN)NC(=O)[C@H](C)NC(=O)[C@H](C)NC(=O)[C@H](CCC(N)=O)NC(=O)CNC(=O)[C@H](CCC(=O)O)NC(=O)[C@H](CC(C)C)NC(=O)[C@H](Cc1ccc(O)cc1)NC(=O)[C@H](CO)NC(=O)[C@H](CO)NC(=O)[C@@H](NC(=O)[C@H](CC(=O)O)NC(=O)[C@H](CO)NC(=O)[C@@H](NC(=O)[C@H](Cc1ccccc1)NC(=O)[C@@H](NC(=O)CNC(=O)[C@H](CCC(=O)O)NC(=O)[C@H](C)NC(=O)[C@@H](N)Cc1c[nH]cn1)[C@@H](C)O)[C@@H](C)O[C@H]1O[C@H](CO)[C@H](O)[C@H](O[C@@H]2O[C@H](CO)[C@H](O)[C@H](O[C@]3(C(=O)O)C[C@H](O)[C@@H](NC(C)=O)[C@H]([C@H](O)[C@H](O)CO)O3)[C@H]2O)[C@H]1NC(C)=O)C(C)C)C(=O)N[C@@H](C)C(=O)N[C@@H](Cc1c[nH]c2ccccc12)C(=O)N[C@@H](CC(C)C)C(=O)N[C@H](C(=O)N[C@@H](CCCCN)C(=O)NCC(=O)N[C@@H](CCCNC(=N)N)C(N)=O)C(C)C [GLP-1-Thr7/ST]	–	–	–	remained (completely) intact after incubation with NEP (neprilysin (NEP); 37° C., MALDI-TOF): 60 min; remained fully intact after/until incubation with DPP-IV [1]: 120 min
CC[C@H](C)[C@H](NC(=O)[C@H](CO)NC(=O)[C@H](CC(N)=O)NC(=O)[C@H](CC(C)C)NC(=O)[C@H](Cc1ccc(O)cc1)NC(=O)[C@H](CCCCN)NC(=O)[C@H](CCCCN)NC(=O)[C@@H](NC(=O)[C@H](C)NC(=O)[C@H](CCSC)NC(=O)[C@H](CCC(N)=O)NC(=O)[C@H](CCCCN)NC(=O)[C@H](CCCNC(=N)N)NC(=O)[C@H](CC(C)C)NC(=O)[C@H](CCCNC(=N)N)NC(=O)[C@@H](NC(=O)[C@H](Cc1ccc(O)cc1)NC(=O)[C@H](CC(N)=O)NC(=O)[C@H](CC(=O)O)NC(=O)[C@@H](NC(=O)[C@H](Cc1ccccc1)NC(=O)[C@@H](NC(=O)[C@H](C)NC(=O)[C@H](CC(=O)O)NC(=O)[C@H](CO)NC(=O)[C@@H](N)Cc1c[nH]cn1)C(C)C)[C@@H](C)O[C@H]1O[C@H](CO)[C@H](O)[C@H](O[C@@H]2O[C@H](CO)[C@H](O)[C@H](O[C@]3(C(=O)O)C[C@H](O)[C@@H](NC(C)=O)[C@H]([C@H](O)[C@H](O)CO)O3)[C@H]2O)[C@H]1NC(C)=O)[C@@H](C)O)C(C)C)C(=O)N[C@@H](CC(C)C)C(=O)N[C@@H](CC(N)=O)C(N)=O [VIP-Thr7/ST]	–	–	–	remained (completely) intact after incubation with NEP (neprilysin (NEP); 37° C., MALDI-TOF): 60 min; partially intact after incubation with DPP-IV [1]: 60 min; remained fully intact after/until incubation with DPP-IV [1]: 30 min
CC[C@H](C)[C@@H]1NC(=O)[C@H](CCCNC(=N)N)NC(=O)[C@H](CC(=O)O)NC(=O)[C@H](CCSC)NC(=O)[C@H](CCCNC(=N)N)NC(=O)CNC(=O)CNC(=O)[C@H](Cc2ccccc2)NC(=O)[C@@H](NC(=O)[C@H](CO)NC(=O)[C@H](CO)NC(=O)[C@H](CCCNC(=N)N)NC(=O)[C@H](CCCNC(=N)N)NC(=O)[C@H](CC(C)C)NC(=O)[C@@H](N)CO)CSSC[C@@H](C(=O)N[C@@H](CC(N)=O)C(=O)N[C@@H](CO)C(=O)N[C@@H](Cc2ccccc2)C(=O)N[C@@H](CCCNC(=N)N)C(=O)N[C@@H](Cc2ccc(O)cc2)C(=O)O)NC(=O)CNC(=O)[C@H](CC(C)C)NC(=O)CNC(=O)[C@H](CO[C@H]2O[C@H](CO)[C@H](O)[C@H](O[C@@H]3O[C@H](CO)[C@H](O)[C@H](O[C@]4(C(=O)O)C[C@H](O)[C@@H](NC(C)=O)[C@H]([C@H](O)[C@H](O)CO)O4)[C@H]3O)[C@H]2NC(C)=O)NC(=O)[C@H](CCC(N)=O)NC(=O)[C@H](C)NC(=O)CNC1=O [ANP-Ser19/ST]	–	–	–	change in mean arterial pressure (MAP) over the infusion period (male Sprague Dawley rats; [2]): decrease; change in plasma cGMP over the infusion period (male Sprague Dawley rats; [2]): increase; MAP in the 30 minutes clearance period (male Sprague Dawley rats; after 60 min infusion): sustained or further reduced; effect on diuresis and natriuresis (male Sprague Dawley rats; i.v. infusion): did not result in increased diuresis nor natriuresis
CC[C@H](C)[C@H](NC(=O)[C@H](CO)NC(=O)[C@H](CC(N)=O)NC(=O)[C@H](CC(C)C)NC(=O)[C@H](Cc1ccc(O)cc1)NC(=O)[C@H](CCCCN)NC(=O)[C@H](CCCCN)NC(=O)[C@@H](NC(=O)[C@H](C)NC(=O)[C@H](CCSC)NC(=O)[C@H](CCC(N)=O)NC(=O)[C@H](CCCCN)NC(=O)[C@H](CCCN=C(N)N)NC(=O)[C@H](CC(C)C)NC(=O)[C@H](CCCN=C(N)N)NC(=O)[C@@H](NC(=O)[C@H](Cc1ccc(O)cc1)NC(=O)[C@H](CC(N)=O)NC(=O)[C@H](CC(=O)O)NC(=O)[C@@H](NC(=O)[C@H](Cc1ccccc1)NC(=O)[C@@H](NC(=O)[C@H](C)NC(=O)[C@H](CC(=O)O)NC(=O)[C@H](CO)NC(=O)[C@@H](N)Cc1c[nH]cn1)C(C)C)[C@@H](C)O)[C@@H](C)O)C(C)C)C(=O)N[C@@H](CC(C)C)C(=O)N[C@@H](CC(N)=O)C(N)=O [VIP, Vasoactive intestinal peptide, reference compound]	–	–	–	time to complete degradation by NEP (neprilysin (NEP); 37° C., MALDI-TOF): 15 min
Ser23-Tn: Galanin Ser23-Tn glycoform	–	–	–	time to complete degradation by NEP (neprilysin (NEP)): 120 min
SLRRSSCFGGRMDRIGAQSGLGCNS(code T)FRY (ends and bridges not checked) [ANP with T O-glycan at residue 25]	~20%	265 nM	–	–
SLRRSSCFGGRMDRIGAQSGLGCNS(ST)FRY (ends and bridges not checked) [ANP with ST O-glycan at residue 25]	~20%	717 nM	–	–
SLRRSSCFGGRMDRIGAQSGLGCNSFRY (not fully specified (residue 25); ends and bridges not checked) [ANP with one O-glycan (GalNAc/Tn) at residue 25]	~20%	–	–	–
SLRRSSCFGGRMDRIGAQS(ST)GLGCNSFRY (ends and bridges not checked) [ANP with ST O-glycan at residue 19]	–	296 nM	~20%	–
SLRRSSCFGGRMDRIGAQS(code T)GLGCNSFRY (ends and bridges not checked) [ANP with T O-glycan at residue 19]	–	160 nM	~20%	–
SLRRSSCFGGRMDRIGAQS(diST)GLGCNSFRY (not fully specified (bridges); ends and bridges not checked) [ANP with diST O-glycan at residue 19]	–	–	~20%	–
SLRRSSCFGGRMDRIGAQSGLGCNS(diST)FRY (not fully specified (bridges); ends and bridges not checked) [ANP with diST O-glycan at residue 25]	~20%	–	–	–
SLRRSSCFGGRMDRIGAQSGLGCNSFRY (not fully specified (residue 19); ends and bridges not checked) [ANP with one O-glycan (GalNAc/Tn) at residue 19]	–	–	~20%	–
